This is an account of results in publication PMC4447274, “Gene Regulation by the LiaSR Two-Component System in Streptococcus mutans” (PLoS ONE, 2015).

Data set [1] concerns the target T1, LiaR (Streptococcus mutans, UniProt Q8DVJ8).
T1 construct: gene SMU_487; ORF from start codon, N-terminal His tag, E. coli BL21, Ni-NTA (pASK-IBA43+, pIBE11)
The experiment in a line: Phos-Tag SDS-PAGE mobility shift (phosphorylation of LiaR). It counts as biochemical. The following applies: 20 mM MnCl2, 50 mM Tris-Cl, 50 mM KCl, 1 mM DTT, pH 7.5, 37 °C, 1 h, phosphodonor, covalent phosphorylation.

Data set [2] deals with T2, His-LiaR (Streptococcus mutans UA159) (UniProt Q8DVJ8).
T2 sequence: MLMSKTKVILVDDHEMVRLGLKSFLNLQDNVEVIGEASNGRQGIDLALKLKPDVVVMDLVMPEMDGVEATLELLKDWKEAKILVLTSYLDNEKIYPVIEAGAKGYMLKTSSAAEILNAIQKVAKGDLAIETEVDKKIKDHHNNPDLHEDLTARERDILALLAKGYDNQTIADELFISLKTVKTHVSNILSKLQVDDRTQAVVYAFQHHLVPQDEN
Kind of data set: EMSA. The following applies: 20 mM Tris-Cl pH 7.5, 100 mM NaCl, 0.01 mM DTT, 5% glycerol, 1 mM EDTA, 0.01 mg/ml BSA, 5 mM MgCl2, 10 ug/ml poly(dI-dC), 30 min (EMSA); BLI in binding buffer ….

Data set [3] addresses T3, His-LiaR-D58A D58A (Streptococcus mutans UA159) (UniProt Q8DVJ8).
T3 sequence: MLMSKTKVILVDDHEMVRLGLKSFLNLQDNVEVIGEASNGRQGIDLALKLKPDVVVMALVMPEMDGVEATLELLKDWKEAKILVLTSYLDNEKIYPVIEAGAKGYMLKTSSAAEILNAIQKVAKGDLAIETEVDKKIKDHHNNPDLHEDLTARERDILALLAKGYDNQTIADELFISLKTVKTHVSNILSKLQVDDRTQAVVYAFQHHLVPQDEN
The experiment in a line: EMSA. The following applies: 20 mM Tris-Cl pH 7.5, 100 mM NaCl, 0.01 mM DTT, 5% glycerol, 1 mM EDTA, 0.01 mg/ml BSA, 5 mM MgCl2, 10 ug/ml poly(dI-dC), 30 min (EMSA); BLI in binding buffer ….

Data set [4] concerns the target T2, His-LiaR (Streptococcus mutans UA159). Kind of data set: competition. Particulars: 20 mM Tris-Cl pH 7.5, 100 mM NaCl, 0.01 mM DTT, 5% glycerol, 1 mM EDTA, 0.01 mg/ml BSA, 5 mM MgCl2, 10 ug/ml poly(dI-dC), 30 min (EMSA); BLI in binding buffer ….
The target of data set [5] is T4, His-LiaR (Streptococcus mutans UA159, UniProt Q8DVJ8 1-215). The experiment in a line: BLI; 1 uM LiaR; Req reduced 3-fold; 20 mM Tris-Cl pH 7.5, 100 mM NaCl, 0.01 mM DTT, 5% glycerol, 1 mM EDTA, 0.01 mg/ml BSA, 5 mM MgCl2, 10 ug/ml poly(dI-dC), 30 min (EMSA); BLI in binding buffer. The following applies: protein: recombinant; tags: N-terminal His; chain copies: 2; label: 32P end label (EMSA); 3' biotin on one strand (BLI).

The target in data set [6] is T4, His-LiaR. Kind of data set: BLI; 1 uM LiaR; 20 mM Tris-Cl pH 7.5, 100 mM NaCl, 0.01 mM DTT, 5% glycerol, 1 mM EDTA, 0.01 mg/ml BSA, 5 mM MgCl2, 10 ug/ml poly(dI-dC), 30 min (EMSA); BLI in binding buffer. Particulars: protein: recombinant; tags: N-terminal His; chain copies: 2; label: 32P end label (EMSA); 3' biotin on one strand (BLI).
The target in data set [7] is T4, His-LiaR. Kind of data set: EMSA; 15-30 pmol LiaR; 20 mM Tris-Cl pH 7.5, 100 mM NaCl, 0.01 mM DTT, 5% glycerol, 1 mM EDTA, 0.01 mg/ml BSA, 5 mM MgCl2, 10 ug/ml poly(dI-dC), 30 min (EMSA); BLI in binding buffer. The following applies: protein: recombinant; tags: N-terminal His; chain copies: 2; label: 32P end label.

As to `CC(=O)OP(=O)(O)O` [Ac-Po4, acetyl phosphate], the “Phos-Tag SDS-PAGE mobility shift (phosphorylation of LiaR)” value in data set [1] (50 mM acetyl phosphate) was “The wild-type protein readily acquired phosphate from both acetyl phosphate and phosphoamidate”. On to `NP(=O)(O)O` [PA, phosphoamidate], for which, in data set [1] (20 mM phosphoamidate), the “Phos-Tag SDS-PAGE mobility shift (phosphorylation of LiaR)” value was “The wild-type protein readily acquired phosphate from both acetyl phosphate and phosphoamidate”. On to “AGCTTAGTTATCATACATCAATCTTATACAGTCTTAATCCTAGACGGATACAAGTTTGATAACAAAAAAGTTATCTCTTCAAACAAGGAGGCTGAGGCAAGAACCTTAAACTTATAAATATAATAACTACAACATATGAGTATACCTGCATTAGATAACATTATTATCAACAGATCATAAACATAACTTGAATTGACATG (double strand) [PSMU.485 (Plia)]”, for which the binding result in data set [2] was “no binding”. On the same count and under the same terms, to “ATTACCAATGTGAATCGTGTGGTCAAGTTTATCAAAGAAAAAGACGAATGAATACGAAAAAATACGCTTGTGGCAACTGCCATGGAAAATTAAGACATCAAAATCAGTCGTAAGGCTGATTTTATTCTTCTCTAAATAGTTTATACTAATAGCATCATGAGATTTGTGATTCATTTTTTAAAAAAGGGAGAGTTGTTTGT (double strand) [PSMU.753]” belongs “binds”. The same measure, in the same setting: the same measure for “CCTAAGTCCACCTCCCATCTTTAATCAATAGAGTTAGCACTCTTAACAGACGACTGCTAACTTCATAATTCCATTATACTCCATTCCTAATTTCTGTCAAGAGAAAAATACAAAAAATTAGCACTCTTTCTGCTTGAGTGCTAAAAATCCGACTTAAGACTTAGTTTTATTGCTGT (double strand) [PhrcA]”: “binds”. Still for that read-out and setting: the same measure for “CTTGTTTGAAGAGATAACTTTTTTGTTATCAAACTTGTATCCGTCTAGGATTAAGACTGTATAAGATTGATGTATGATAACTAAGCTATGGCGTCTTTGATATTTGAAAAATTCTCTTTATCTTTAGTGTTATTTGGTCTAGATCAAGAGGTGAAATTTATCCTAAATTTTGATACAATGACTAATAATTGTAGAACTGAAGGAAGCCTTATG (double strand) [Alternative PSMU.485]”: “no binding”; for “GTTTATTCAAGAAATTCGCAAAGGTCCATCTCCTTTTTCTAAAGTCACTTATGTTGACGTCAATATAGCAAATTTTTCTGATTACCATGATTTCAGAATGGCCAATTAATTTATCTCAAAATCATTCTCAAGAACTATTGAGTATTTTACTAAAAAACAGTAAAATAGATAGGTATTATTAAAATCAAAGGAAGATTATC (double strand) [PSMU.1727]”: “binds”. As to “TTAATTGAGGAAGATAATACTGAAGAAAAACAGTCTTCTAAAGAAAAAGAAACTGATGAGAAAGCTGACAAAAACCTTGTTTTAGAGCTGGATGATACAATTGAGCTTGAAGATTAAATAAAAATAGGTCCCAAGACCGACTCTTTATTTAATAAGCTATGCTAAGATAATATTATCCTGTAAGGAAAGAGAGATTTAAAC (double strand) [PSMU.2084]”, the binding entry in data set [2] was “binds”; in data set [3], “no binding”; in data set [4] it was “binds”.

B1: C13A/A17G consensus (dsDNA)
DNA 1: ATCAAAATCAGTATCAGGACCGATT
DNA 2: AATCGGTCCTGATACTGATTTTGAT
For B1, in data set [5], the binding signal is ~4 fold reduction of Rmax vs consensus.

B2: A23G/T25C consensus (dsDNA)
DNA 1: ATCAAAATCAGTCTCAAGACCGGTC
DNA 2: GACCGGTCTTGAGACTGATTTTGAT
For B2, in data set [6], the binding signal was ~1.5 fold reduction of Rmax and Req vs consensus.

B3: IR only (16-bp) (dsDNA)
DNA 1: TCAGTCTCAAGACCGATT
DNA 2: AATCGGTCTTGAGACTGA
For B3, the binding result in data set [7] was “no binding”.
